Source: the supplement of paper PMC12042874
± gives the uncertainty stated by the source.

Assay: amyloid nucleation score (Sup35N fusion, yeast selection) (log enrichment); library NNK3; higher = more nucleation; inactive = no reads after selection
Summary of the method: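 The nucleation score, computed with DiMSum, is the log enrichment of output over input reads, centred on the mode score of non-aggregating sequences. Sequences with under 100 input reads were dropped. Reads were generated by Illumina sequencing of plasmid inserts from psi-negative yeast with Sup35N fused to peptides of 20 random codons, induced with 100 μM copper sulfate for 24 hours and grown 7 days at 30°C on medium lacking adenine and uracil.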

| Substance | amyloid nucleation score |
| --- | --- |
| SRRFYLYYFCWYSVVMFIHG | inactive |
| VMTAVRAD | inactive |
| YGCCVSGMYVALGLQ | 2.8 ± 0.068 |
| GFHELRLH | inactive |
| SITSFDFLINRVSMPSYNCG | inactive |
| FYFNYFIRMCNITCDI | 2.73 ± 0.05 |
| FLLDMGVNALSW | inactive |
| YKFGVTPWLRFILSNVRKMM | inactive |
| VYWHVWVALSCFMPANIGVV | inactive |
| LQFDYLMIYLVQFSVLWVCL | inactive |
| FVLVWFLRLFDL | inactive |
| KLMLHNEYMPGVQLLLNQYK | 0.436 ± 0.46 |
| LADNYVTCKS | inactive |
| KIGQSFSV | inactive |
| PFLTTKIVQVAGDLVNMFYE | 1.24 ± 0.16 |
| REAASQIHSEDKMGGWYHRL | inactive |
| LLFLNFTICCYSFRKGMHGF | -0.344 ± 0.32 |
| LCLRSVRLCGKAYSINDRRH | inactive |
| ILSCPSS | inactive |
| SEHDDGMVSPKTHTVGSYTC | inactive |
| TRVTS | inactive |
| LNALLGQYSDISMRISLNVS | inactive |
| DNLGLFSVVKRSPMLSVTKE | inactive |

| Substance | amyloid nucleation score |
| --- | --- |
| SPGGLGFSVNLHCSTYFRPS | 1.24 ± 0.14 |
| FMPMFLRICCTMMLMWLFAC | inactive |
| IYNTGHSSRYLRTPVFAWSE | inactive |
| FGWVFLYDKLIPVKPFELYF | inactive |
| FNWMPMGEKSAWAVRVRSAC | inactive |
| LEALSLDVNDVVRQYSNSEG | inactive |
| ASHRGYRQRRKDVFHGIEA | inactive |
| FKAVQN | inactive |
| TMGVSLHHIKGPFWSVIYCI | 0.481 ± 0.32 |
| PGRMRVVTVMKMWLTALSLK | inactive |
| TRMDIESGYVLESYSRPSPM | inactive |
| AMVRNVYSCLRNRTCFLSSL | inactive |
| VRDVDKMC | inactive |
| NCLFWSEVRFHVMCFCDWLL | inactive |
| FEQNVGGLYWNKWSWGNLMR | inactive |
| IQHFFQINNWLLDI | 1.98 ± 0.07 |
| EIVYCPWLQSWRA | inactive |
| NVMIDDVLARYYRVRRGLVG | inactive |
| VDYSRALTAYVCIPANFSVP | inactive |
| PRLHRECNEGEVGL | 0.206 ± 0.81 |
| SALVLPRSVSVDLIGVWDFK | inactive |
| DIWYRIKMFSIWKFMSHTTG | inactive |
| HRYYCRLVFVEQTRDNIQPW | inactive |

| Substance | amyloid nucleation score |
| --- | --- |
| NEDST | inactive |
| STCRWLFNNA | 0.257 ± 0.16 |
| VHLNPEN | inactive |
| CFMSNIDIFLDRCMRKGCNH | 2.08 ± 0.072 |
| QQEKLCLKHTSQVDI | inactive |
| LPAGFKSR | inactive |
| YLLCF | inactive |
| FNVTWKRLRIGRVGMKQKLS | 0.336 ± 0.77 |
| KYFRARYHSPSEWLWSMIDW | inactive |
| STWTG | inactive |
| TYFVVDGYVGMFCLIGDISS | 2.69 ± 0.052 |
| ITVIGQLIALKQFSTLTRSI | inactive |
| CEVRGCNYTYSVGERCSQN | inactive |
| TSTYANKALTVLE | inactive |
| QQSTIIFFVWAWMELNPTWK | inactive |
| NNFMYPELAPSARRCAWYCG | inactive |
| KIFRIYICDCELYHTNGMWA | 1.56 ± 0.1 |
| ASQSSVLPWNS | inactive |
| KKQGSWRKNITISRVCVVLG | inactive |
| FELPMHTGV | inactive |
| ISCSKLTR | inactive |
| DVSYYERGSSVHYTHSD | inactive |
| NMYSISTLHRKLADPVCSV | inactive |

| Substance | amyloid nucleation score |
| --- | --- |
| VWVTFMRAVMTLELCLERMR | inactive |
| GVAELMGVWDVKLVVPLEES | inactive |
| GPLHMANYGYVLNIYLSCRN | 2.15 ± 0.06 |
| YSAAYEIIIFICQCCNLKVG | inactive |
| IPWCSPDGLVRRYHHKR | inactive |
| QGSRLNGIKSPLCIGLKCSR | inactive |
| FSFMLSDTGLSVFSSVYDEA | inactive |
| TELFALGYRSFCARTCATHD | inactive |
| LVGNHVSVAIISLVPLSFPH | 2.06 ± 0.067 |
| LFFCNCCYGICS | 2.4 ± 0.079 |
| VYNLVDIESEPKVVFNGLFL | inactive |
| EHVWHRCTKVN | inactive |
| WDHTA | inactive |
| QRIHGLF | inactive |
| MIYSYTNFGNIWKVCQVMRH | 2.39 ± 0.057 |
| SCTRIVY | inactive |
| VAFDIINRQNIINEWGCWID | inactive |
| AFMNWVARRKTRWGGLYGGN | inactive |
| KCIQWTGRDAYFEICYKQLD | 1.12 ± 0.11 |
| WVQPSYRPSCVLYRSNNNNR | inactive |
| RYCNASY | inactive |
| CVSIKIASPPF | 0.43 ± 0.3 |
| KLGKESRSFLMTTRNVDRRF | 1.43 ± 0.11 |

| Substance | amyloid nucleation score |
| --- | --- |
| DRVITSNFFSSVWTQT | inactive |
| TMHKGLVVMF | inactive |
| DFIFIQILDVNCRWDRCMYC | 0.444 ± 0.16 |
| PWFTMVRIGEMVLYLRMQRR | inactive |
| KVSMYRVVWCPASFGVIIVA | inactive |
| WVLLKSWQNCLLGELVSEVQ | inactive |
| HRLTCELFTWMPAEVCVWAD | inactive |
| QYRDSYANSSQNPFHCFFNL | inactive |
| VCGAVSKPLWIRCTVDPRGR | inactive |
| IFLNLLSRGFGLGRELKCRC | inactive |
| TLARQWSDP | inactive |
| RGSKQLDWHSYYNRVLDIGR | -0.296 ± 0.88 |
| VAWAASARRHMYIPDRDSCA | inactive |
| NGSYIFPSNCYSKIAIVMVG | 0.706 ± 0.26 |
| SYSFEYNHSDKFVSLYYMDI | inactive |
| CSNKQSDTSFAYLTIMNMCP | inactive |
| FGCRSNDNQ | inactive |
| MRMFCDIYLIVIDTEFMLHF | inactive |
| CQYRVTSYHSSWFFSEAMHP | -0.268 ± 0.7 |
| PSYLKTFRDVLMTVSMYFVC | inactive |
| GGLQTERFLWRC | 0.13 ± 0.63 |
| RIRVSNVCSHQFWLIYGNDT | 2.15 ± 0.057 |
| NRVSFPRGSKFCTFL | inactive |

| Substance | amyloid nucleation score |
| --- | --- |
| AGSCVMFGPSW | inactive |
| DFSFSIRVGSSALGVSKNTE | 1.31 ± 0.093 |
| RLSSLPHCVIM | inactive |
| SSSPVMYCMFLRSRSGRDYK | inactive |
| RSRRFGYSAAISFTIGNLNS | 1.28 ± 0.13 |
| MIYYMLWTYWALPKPWNEYI | 0.971 ± 0.16 |
| LVSFWSVRFIICYLRLGLSC | inactive |
| FNTFVPRKYH | inactive |
| SEAPSSR | inactive |
| VKWTQE | inactive |
| LFKMPCLILVWPDSMFATSL | inactive |
| HTGLVILSVISPVTCPYWRK | 0.329 ± 0.3 |
| TCHLPAQSLLFIRCSTKAGV | inactive |
| CYWEPRSWISCRRPILRMSV | inactive |
| SQGQY | -0.672 ± 1.4 |
| GHLFVNTRYFGNFLDSSQVR | inactive |
| YSATGIPSCWRLNFVENLRT | inactive |
| LWVTM | 1.37 ± 0.14 |
| LYMSWAKTLFGECNCSHVLL | inactive |
| PRGIDG | inactive |
| RHAYQRWLIFC | inactive |
| LHCLEFSCVRHSVRY | 2.14 ± 0.073 |
| RHEHREGNGDVPLNV | inactive |

| Substance | amyloid nucleation score |
| --- | --- |
| GVVSSSPMCVNSDREVVEKT | inactive |
| TKGTKDRPPYTVVRLQYGNS | inactive |
| LALLTAADARD | inactive |
| SHSVYIFFVSTFVGSLWSLP | inactive |
| FRMASS | inactive |
| SFSRPVHSWAGHY | inactive |
| NLSLFWMWELGKFYHGDRTA | 2.23 ± 0.066 |
| CVLKMLNNHHAHFILNGCRT | inactive |
| HMFRVVPSLIRI | inactive |
| HCEFRSQSDTNVVNLCGQGW | inactive |
| INYGTRQCVVQCIIVVCSLG | 2.17 ± 0.068 |
| LMGKTHFLSVVWVVQVG | inactive |
| AGAVVDV | inactive |
| ISYVKFY | inactive |
| GYFARLR | inactive |
| GCLDQFGCGGTPVKVFATNV | -1.39 ± 2.5 |
| AGAGLNKLSVLTVTTLLMIL | inactive |
| RWLVT | inactive |
| AGSIGPVRSRGIMLTRLEV | -0.42 ± 1.8 |
| LIRMQVGLLGV | inactive |
| HYCRNTGC | inactive |
| NIVAVRCWFLDFPQDD | inactive |
| MFGNIRTFAPTITCMGDFTL | inactive |
